According to patent US20080214468A1 (UNIVERSITY OF VIRGINIA PATENT FOUNDATION, published 2008):
Where no end group is shown, it is not given here.

Molecular target: Vimentin from bovine aortic endothelial cells (bovine, UniProt P48616 2-466)
Test: affinity chromatography of BAEC cell fractions on immobilized peptide
Protocol: Membrane and cytosol fractions from human bone marrow endothelial cells and bovine aortic endothelial cells were prepared and used to identify the components from within these fractions that bind to the peptides using affinity chromatography). […] Cell surface nucleolin is present at higher concentrations in actively dividing cells and is down regulated in cells when they become quiescent. Nucleolin is the apparent cell surface receptor of E-coli intimin-gamma. Cell bound intimin has been proposed to trigger a host cell response similar to the extension of filipodia when cells bind to laminin. […] Table 3 provides a summary of peptide-binding partners (putative receptors) identified by affinity chromatography of cell lysates.

Sequence of Vimentin from bovine aortic endothelial cells (P48616 2-466 limits assumed): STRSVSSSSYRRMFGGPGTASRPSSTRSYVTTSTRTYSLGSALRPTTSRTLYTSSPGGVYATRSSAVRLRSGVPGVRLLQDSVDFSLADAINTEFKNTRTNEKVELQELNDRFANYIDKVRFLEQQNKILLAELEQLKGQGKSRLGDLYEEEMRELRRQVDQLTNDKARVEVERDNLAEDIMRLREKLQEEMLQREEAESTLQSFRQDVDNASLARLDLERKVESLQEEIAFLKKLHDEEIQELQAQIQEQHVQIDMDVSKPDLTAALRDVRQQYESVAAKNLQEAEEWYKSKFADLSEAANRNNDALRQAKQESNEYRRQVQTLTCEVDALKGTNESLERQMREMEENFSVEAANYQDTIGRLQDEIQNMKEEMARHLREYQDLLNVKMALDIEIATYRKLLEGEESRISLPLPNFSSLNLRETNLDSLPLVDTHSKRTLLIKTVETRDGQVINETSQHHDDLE

Binder	binding result
QRSWTLDSALSMGGGS (also: biotinylated, position not given here, 12-mer with the C-terminal GGGS linker) [peptide L12 (SEQ ID NO:7)]	binds
SYSQMDPPRSLPGGGS (also: biotinylated, position not given here, 12-mer with the C-terminal GGGS linker) [peptide R8 (SEQ ID NO:14)]	binds
